Assay results reported in patent publication US20230398151A1.
Read-outs that look alike come from different tables or passages of the source.

Tests used:
[1] = biological target: TGFβ1 (R&D systems) (UniProt P01137); test: cell-based or functional assay
[2] = biological target: TGFβ1 (R&D systems) (UniProt P01137); test: cell-based or functional assay; remark: listed apart in the source

Chain of TGFβ1 (R&D systems) (P01137 279-390 limits assumed): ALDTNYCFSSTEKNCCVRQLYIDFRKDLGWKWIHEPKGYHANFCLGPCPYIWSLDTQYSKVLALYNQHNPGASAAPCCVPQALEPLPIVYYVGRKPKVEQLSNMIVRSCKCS

IC50 of TGFβ1 activity in HEK-Blue TGFβ cells [1]: 0.461 nM | IC50 of TGFβ1 activity in HEK-Blue TGFβ cells [2]: 0.559 nM
Substance: TGFR-Fc (R&D Systems) (from UniProt P37173 24-159) (Fc fusion)
